*1 amine or outer side, *2 acyl side, *3 side chain or, on linkers, in order; H or OH if unused. Where no end group is shown, it is not given here. Side-chain parts run from the residue outwards. [ ]: non-standard residue; d: D form. The star is where a group is joined. αMePhe(2-F) = C[C@](N)(Cc1ccccc1F)C(=O)O; γGlu = O=C(O)[C@H](CCC(=O)[*:2])N[*:1]; C14 diacid = O=C(O)CCCCCCCCCCCCC(=O)*; αMeY = C[C@](N)(Cc1ccc(O)cc1)C(=O)O; αMeF = C[C@](N)(Cc1ccccc1)C(=O)O; αMeL = CC(C)C[C@](C)(N)C(=O)O; Orn = NCCC[C@H](N)C(=O)O; AEEA = NCCOCCOCC(=O)O; Aib = CC(C)(N)C(=O)O
Legend:
Assay in all cases: cell-based or functional assay
[1] = target: T1, human GIP receptor (human, UniProt P48546 22-466)
T1 sequence (looked up): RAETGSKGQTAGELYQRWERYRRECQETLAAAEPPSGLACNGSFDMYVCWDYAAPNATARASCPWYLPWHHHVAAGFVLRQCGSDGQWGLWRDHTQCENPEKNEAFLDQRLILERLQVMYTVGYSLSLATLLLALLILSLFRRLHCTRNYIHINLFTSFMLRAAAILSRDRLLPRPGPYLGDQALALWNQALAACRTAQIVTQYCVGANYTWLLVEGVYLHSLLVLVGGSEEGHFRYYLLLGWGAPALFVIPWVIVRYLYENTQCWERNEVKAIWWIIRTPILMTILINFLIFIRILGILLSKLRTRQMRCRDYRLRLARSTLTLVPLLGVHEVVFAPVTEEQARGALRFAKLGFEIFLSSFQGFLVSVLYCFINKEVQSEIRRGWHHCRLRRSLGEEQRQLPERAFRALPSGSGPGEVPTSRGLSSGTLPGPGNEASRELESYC

[2] = target: human GLP-1 receptor (human, UniProt P43220 24-463)
[3] = target: human glucagon receptor (human, UniProt P47871 26-477)

B1: Y-Aib-EGT-αMeF(2F)-TSD-ChG-SI-αMeL-LD-Orn-K((2-[2-(2-Amino-ethoxy)-ethoxy]-acetyl)2-(γ-Glu)-CO-(CH2)12-CO2H)AQ-Aib-EFI-(D-Glu)-αMeY-LIEGGK((2-[2-(2-Amino-ethoxy … (peptide)
peptide: YXEGTXTSDXSIXLDXKAQXEFIXXLIEGGKSSGAPPPS
modifications: Aib2, αMeF(2F)6, ChG10, αMeL13, Orn16, Aib20, D-Glu24, αMeY25; acylated K17, K31 (groups as in name); C-terminal amide
[1]
  cAMP EC50 (1.0% HSA): 5.49 nM
[2]
  cAMP EC50 (1.0% HSA): 227 nM
[3]
  cAMP EC50 (1.0% HSA): > 9.95 µM

B2: Y-Aib-EGT-αMeF(2F)-TSD-αMeF(2F)-SI-αMeL-LD-Orn-K((2-[2-(2-Amino-ethoxy)-ethoxy]-acetyl)2-(γ-Glu)-CO-(CH2)12-CO2H)AQ-Aib-EFI-(D-Glu)-αMeY-LIEGGK((2-[2-(2-Amino-e … (peptide)
peptide: YXEGTXTSDXSIXLDXKAQXEFIXXLIEGGKSSGAPPPS
modifications: Aib2, αMeF(2F)6, αMeF(2F)10, αMeL13, Orn16, Aib20, D-Glu24, αMeY25; acylated K17, K31 (groups as in name); C-terminal amide
[1]
  cAMP EC50 (1.0% HSA): 4.84 nM
[2]
  cAMP EC50 (1.0% HSA): 80 nM
[3]
  cAMP EC50 (1.0% HSA): > 9.95 µM

B3: Y-Aib-EGT-αMeF(2F)-TSD-ChA-SI-αMeL-LD-Orn-K((2-[2-(2-Amino-ethoxy)-ethoxy]-acetyl)2-(γ-Glu)-CO-(CH2)12-CO2H)AQ-Aib-EFI-(D-Glu)-αMeY-LIEGGK((2-[2-(2-Amino-ethoxy … (peptide)
peptide: YXEGTXTSDXSIXLDXKAQXEFIXXLIEGGKSSGAPPPS
modifications: Aib2, αMeF(2F)6, ChA10, αMeL13, Orn16, Aib20, D-Glu24, αMeY25; acylated K17, K31 (groups as in name); C-terminal amide
[1]
  cAMP EC50 (1.0% HSA): 4.97 nM
[2]
  cAMP EC50 (1.0% HSA): 58.1 nM
[3]
  cAMP EC50 (1.0% HSA): > 9.95 µM

B4: Y-Aib-EGT-αMeF(2F)-TSD-4Pal-SI-αMeL-LD-Orn-K((2-[2-(2-Amino-ethoxy)-ethoxy]-acetyl)2-(γ-Glu)-CO-(CH2)12-CO2H)AQ-Aib-GFI-(D-Glu)-αMeY-LIEGGK((2-[2-(2-Amino-ethox … (peptide)
peptide: YXEGTXTSDXSIXLDXKAQXGFIXXLIEGGKSSGAPPPS
modifications: Aib2, αMeF(2F)6, 4Pal10, αMeL13, Orn16, Aib20, D-Glu24, αMeY25; acylated K17, K31 (groups as in name); C-terminal amide
[1]
  cAMP EC50 (1.0% HSA): 0.515 nM
  cAMP Emax (1.0% HSA): 94.2%
[2]
  cAMP EC50 (1.0% HSA): 35.5 nM
[3]
  cAMP EC50 (1.0% HSA): > 9.95 µM

B5: Y-Aib-EGT-αMeF(2F)-TSD-4Pal-SI-αMeL-LD-Orn-K((2-[2-(2-Amino-ethoxy)-ethoxy]-acetyl)2-(γ-Glu)-CO-(CH2)12-CO2H)GQ-Aib-EFI-(D-Glu)-αMeY-LIEGGK((2-[2-(2-Amino-ethox … (peptide)
peptide: YXEGTXTSDXSIXLDXKGQXEFIXXLIEGGKSSGAPPPS
modifications: Aib2, αMeF(2F)6, 4Pal10, αMeL13, Orn16, Aib20, D-Glu24, αMeY25; acylated K17, K31 (groups as in name); C-terminal amide
[1]
  cAMP EC50 (1.0% HSA): 2.36 nM
  cAMP Emax (1.0% HSA): 96.9%
[2]
  cAMP EC50 (1.0% HSA): 367 nM
[3]
  cAMP EC50 (1.0% HSA): > 9.95 µM

B6: Y-Aib-EGT-αMeF(2F)-TSD-Ac5c-SI-αMeL-LD-Orn-K((2-[2-(2-Amino-ethoxy)-ethoxy]-acetyl)2-(γ-Glu)-CO-(CH2)12-CO2H)AQ-Aib-E-αMeF-I-(D-Glu)-αMeY-LIEGGK((2-[2-(2-Amino- … (peptide)
peptide: YXEGTXTSDXSIXLDXKAQXEXIXXLIEGGKSSGAPPPS
modifications: Aib2, αMeF(2F)6, Ac5c10, αMeL13, Orn16, Aib20, αMeF22, D-Glu24, αMeY25; acylated K17, K31 (groups as in name); C-terminal amide
[1]
  cAMP EC50 (1.0% HSA): 2.81 nM
[2]
  cAMP EC50 (1.0% HSA): 145 nM
  cAMP Emax (1.0% HSA): 113%
[3]
  cAMP EC50 (1.0% HSA): > 9.95 µM

B7: Y-Aib-EGT-αMeF(2F)-TSDVSI-αMeL-LD-Orn-K((2-[2-(2-Amino-ethoxy)-ethoxy]-acetyl)2-(γ-Glu)-CO-(CH2)12-CO2H)AQ-Aib-EFI-(D-Glu)-αMeY-LIEGGK((2-[2-(2-Amino-ethoxy)-et … (peptide)
peptide: YXEGTXTSDVSIXLDXKAQXEFIXXLIEGGKSSGAPPPS
modifications: Aib2, αMeF(2F)6, αMeL13, Orn16, Aib20, D-Glu24, αMeY25; acylated K17, K31 (groups as in name); C-terminal amide
[1]
  cAMP EC50 (1.0% HSA): 3.81 nM
  cAMP Emax (1.0% HSA): 104%
[2]
  cAMP EC50 (1.0% HSA): 23.4 nM
  cAMP Emax (1.0% HSA): 96.6%
[3]
  cAMP EC50 (1.0% HSA): > 9.95 µM

B8: Y-Aib-EGT-αMeF(2F)-TSD-4Pal-SI-αMeL-LD-Orn-K((2-[2-(2-Amino-ethoxy)-ethoxy]-acetyl)2-(γ-Glu)-CO-(CH2)12-CO2H)AQ-Aib-E-2Nal-I-(D-Glu)-αMeY-LIEGGK((2-[2-(2-Amino- … (peptide)
peptide: YXEGTXTSDXSIXLDXKAQXEXIXXLIEGGKSSGAPPPS
modifications: Aib2, αMeF(2F)6, 4Pal10, αMeL13, Orn16, Aib20, 2Nal22, D-Glu24, αMeY25; acylated K17, K31 (groups as in name); C-terminal amide
[1]
  cAMP EC50 (1.0% HSA): 2.49 nM
[2]
  cAMP EC50 (1.0% HSA): 20 nM
  cAMP Emax (1.0% HSA): 81.1%
[3]
  cAMP EC50 (1.0% HSA): > 9.95 µM

B9: Y-Aib-EGT-αMeF(2F)-TSD-4Pal-Aib-I-αMeL-LD-Orn-K((2-[2-(2-Amino-ethoxy)-ethoxy]-acetyl)2-(γ-Glu)-CO-(CH2)12-CO2H)AQ-Aib-EFI-(D-Glu)-αMeY-LIEGGK((2-[2-(2-Amino-et … (peptide)
peptide: YXEGTXTSDXXIXLDXKAQXEFIXXLIEGGKSSGAPPPS
modifications: Aib2, αMeF(2F)6, 4Pal10, Aib11, αMeL13, Orn16, Aib20, D-Glu24, αMeY25; acylated K17, K31 (groups as in name); C-terminal amide
[1]
  cAMP EC50 (1.0% HSA): 1.49 nM
  cAMP Emax (1.0% HSA): 94.2%
[2]
  cAMP EC50 (1.0% HSA): 27.7 nM
  cAMP Emax (1.0% HSA): 108%
[3]
  cAMP EC50 (1.0% HSA): > 9.95 µM

B10: Y-Aib-EGT-αMeF(2F)-TSD-Ac4c-SI-αMeL-LD-Orn-K((2-[2-(2-Amino-ethoxy)-ethoxy]-acetyl)2-(γ-Glu)-CO-(CH2)12-CO2H)AQ-Aib-EFI-(D-Glu)-αMeY-LIEGGK((2-[2-(2-Amino-ethox … (peptide)
peptide: YXEGTXTSDXSIXLDXKAQXEFIXXLIEGGKSSGAPPPS
modifications: Aib2, αMeF(2F)6, Ac4c10, αMeL13, Orn16, Aib20, D-Glu24, αMeY25; acylated K17, K31 (groups as in name); C-terminal amide
[1]
  cAMP EC50 (1.0% HSA): 4.68 nM
[2]
  cAMP EC50 (1.0% HSA): 8.84 nM
  cAMP Emax (1.0% HSA): 84%
[3]
  cAMP EC50 (1.0% HSA): > 9.95 µM

B11: Y-Aib-EGT-αMeF(2F)-TSDV-Aib-I-αMeL-LD-Orn-K((2-[2-(2-Amino-ethoxy)-ethoxy]-acetyl)2-(γ-Glu)-CO-(CH2)12-CO2H)AQ-Aib-E-αMeF-I-(D-Glu)-αMeY-LIEGGK((2-[2-(2-Amino-e … (peptide)
peptide: Y[Aib]EGT[αMePhe(2-F)]TSDV[Aib]I[αMeL]LD[Orn]K([AEEA-AEEA-γGlu-C14 diacid])AQ[Aib]E[αMeF]I[dE][αMeY]LIEGGK([AEEA-AEEA-γGlu-C14 diacid])SSGAPPPS-NH2
[1]
  cAMP EC50 (1.0% HSA): 5.58 nM
  cAMP Emax (1.0% HSA): 92%
[2]
  cAMP EC50 (1.0% HSA): 66 nM
[3]
  cAMP EC50 (1.0% HSA): > 9.95 µM
